Legend:
[1] = target: T1, CD25 (R&D systems cat. #223-2A/CF) (UniProt P01589 22-213, limits assumed); assay: Biacore (SPR); antibody captured on Protein A, CD25 injected
T1 construct: Bought soluble protein
T1 sequence (looked up): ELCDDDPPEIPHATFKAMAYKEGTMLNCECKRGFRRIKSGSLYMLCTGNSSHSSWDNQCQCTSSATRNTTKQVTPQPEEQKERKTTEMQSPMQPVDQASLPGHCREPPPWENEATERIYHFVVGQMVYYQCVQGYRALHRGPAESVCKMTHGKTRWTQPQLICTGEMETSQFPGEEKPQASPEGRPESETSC
Method: (§1) Binding was measured by injection of two-fold serial dilutions of CD25 (0 nM to 50 nM; R&D systems) in buffer at 25° C. with a flow rate of 25-30 μL/min for 2 min followed by a dissociation phase of 4-5 min. Association rates (kₒₙ) and dissociation rates (koff) were calculated using a simple one-to-one Langmuir binding model (BIAcore Evaluation Software version 3.2). The equilibrium dissociation constant (Kd) was calculated as the ratio of koff/kₒₙ).

[2] = target: T1, CD25 (R&D systems cat. #223-2A/CF); assay: SPR (Biacore), single variant in H1L1 background
Method: as §1

B1: anti-CD25 H1L1 single variant VH I69M (antibody, IgG1, V domains shown)
VH: QVQLVQSGAEVKKPGASVKVSCKASGYTFTSYRMHWVRQAPGQGLEWMGYINPSTGYTEYNQKFQGRVTMTADKSISTAYMELSRLRSDDTAVYYCARGGGVFDYWGQGTLVTVSS
VL: QIVLTQSPATLSLSPGERATLSCRASSSISYMHWFQQKPGQSPQLLIYTTSNLASGVPARFSGSGSGTDYTLTISSLQPEDFAVYYCHQRSTYPLTFGSGTKLEIK
notes: IgG1 format
For B1, the Kd [1] was 0.13 nM, the koff [1] was 0.00026 s⁻¹ and the kon [1] was 2e+06 M⁻¹ s⁻¹. For the same binder, the “fold increase in affinity against anti-CD25 H1L1” value [2] was 2.4 fold.

Reference: patent publication US20100004431A1 (Xencor, published 2010)
